In the assay the target is 生物素化的SARS-CoV-2 RBD (SARS-CoV-2, UniProt P0DTC2 319-541). The assay is described as follows: ELISA screen, Fab culture supernatant on streptavidin-captured biotinylated RBD.

B1: CB6-15 (重链突变库克隆) (Fab)
VH: EVQLVESGGGLVQPGGSLRLSCAASGFQVNRNYMSWVRQAPGKGLEWVSVIYPGGSTFYADSVKGRFTISRDNSMNTLFLQMNSLRAEDTAVYYCARVLPMYGDYLDYWGQGTLVTVSS
light: […]
notes: also called CB6-15-VH; CB6-15-HC
B1: the binding result is listed as “binds”.

B2: CB6-30 (轻链突变库克隆) (Fab, V domains shown)
VH: EVQLVESGGGLVQPGGSLRLSCAASGFTVSSNYMSWVRQAPGKGLEWVSVIYSGGSTFYADSVKGRFTISRDNSMNTLFLQMNSLRAEDTAVYYCARVLPMYGDYLDYWGQGTLVTVSS
VL: DIVMTQSPSSLSASVGDRVTITCRASQWILPYLNWYQQKPGKAPKLLIYAASSLQSGVPSRFSGSGSGTDFTLTISSLQPEDFATYYCQQSSSSTPEYTFGQGTKLEIK
notes: also called CB6-30-VL; CB6-30-LC
With B2, the binding result is reported as “binds”.

B3: CB6-26 (轻链突变库克隆) (Fab, V domains shown)
VH: EVQLVESGGGLVQPGGSLRLSCAASGFTVSSNYMSWVRQAPGKGLEWVSVIYSGGSTFYADSVKGRFTISRDNSMNTLFLQMNSLRAEDTAVYYCARVLPMYGDYLDYWGQGTLVTVSS
VL: DIVMTQSPSSLSASVGDRVTITCRASQRIEQYLNWYQQKPGKAPKLLIYAASSLQSGVPSRFSGSGSGTDFTLTISSLQPEDFATYYCQQSASSSPEYTFGQGTKLEIK
notes: also called CB6-26-VL; CB6-26-LC
For B3, the binding result is listed as “binds”.

B4: CB6-22 (轻链突变库克隆) (Fab, V domains shown)
VH: EVQLVESGGGLVQPGGSLRLSCAASGFTVSSNYMSWVRQAPGKGLEWVSVIYSGGSTFYADSVKGRFTISRDNSMNTLFLQMNSLRAEDTAVYYCARVLPMYGDYLDYWGQGTLVTVSS
VL: DIVMTQSPSSLSASVGDRVTITCRASQRILPYLNWYQQKPGKAPKLLIYAASSLQSGVPSRFSGSGSGTDFTLTISSLQPEDFATYYCQQSSSATPEYTFGQGTKLEIK
notes: also called CB6-22-VL; CB6-22-LC
Turning to B4, the binding result is recorded as “binds”.

B5: CB6-20 (轻链突变库克隆) (Fab, V domains shown)
VH: EVQLVESGGGLVQPGGSLRLSCAASGFTVSSNYMSWVRQAPGKGLEWVSVIYSGGSTFYADSVKGRFTISRDNSMNTLFLQMNSLRAEDTAVYYCARVLPMYGDYLDYWGQGTLVTVSS
VL: DIVMTQSPSSLSASVGDRVTITCRASQAILPYLNWYQQKPGKAPKLLIYAASSLQSGVPSRFSGSGSGTDFTLTISSLQPEDFATYYCQQSYSIIPEYTFGQGTKLEIK
notes: also called CB6-20-VL; CB6-20-LC
As for B5, the binding result is on record as “binds”.

B6: CB6-34 (轻链突变库克隆) (Fab, V domains shown)
VH: EVQLVESGGGLVQPGGSLRLSCAASGFTVSSNYMSWVRQAPGKGLEWVSVIYSGGSTFYADSVKGRFTISRDNSMNTLFLQMNSLRAEDTAVYYCARVLPMYGDYLDYWGQGTLVTVSS
VL: DIVMTQSPSSLSASVGDRVTITCRASQSILQYLNWYQQKPGKAPKLLIYAASSLQSGVPSRFSGSGSGTDFTLTISSLQPEDFATYYCQQSSSPVPEYTFGQGTKLEIK
notes: also called CB6-34-VL; CB6-34-LC
Take B6: the binding result is listed as “binds”.

B7: CB6-35 (轻链突变库克隆) (Fab, V domains shown)
VH: EVQLVESGGGLVQPGGSLRLSCAASGFTVSSNYMSWVRQAPGKGLEWVSVIYSGGSTFYADSVKGRFTISRDNSMNTLFLQMNSLRAEDTAVYYCARVLPMYGDYLDYWGQGTLVTVSS
VL: DIVMTQSPSSLSASVGDRVTITCRASQKIHQYLNWYQQKPGKAPKLLIYAASSLQSGVPSRFSGSGSGTDFTLTISSLQPEDFATYYCQQSESSKPEYTFGQGTKLEIK
notes: also called CB6-35-VL; CB6-35-LC
Turning to B7, the binding result is listed as “binds”.

B8: CB6-18 (轻链突变库克隆) (Fab, V domains shown)
VH: EVQLVESGGGLVQPGGSLRLSCAASGFTVSSNYMSWVRQAPGKGLEWVSVIYSGGSTFYADSVKGRFTISRDNSMNTLFLQMNSLRAEDTAVYYCARVLPMYGDYLDYWGQGTLVTVSS
VL: DIVMTQSPSSLSASVGDRVTITCRASQDIHVYLNWYQQKPGKAPKLLIYAASSLQSGVPSRFSGSGSGTDFTLTISSLQPEDFATYYCQQSGSPVPEYTFGQGTKLEIK
notes: also called CB6-18-VL; CB6-18-LC
In the case of B8, the binding result is on record as “binds”.

B9: CB6-27 (轻链突变库克隆) (Fab, V domains shown)
VH: EVQLVESGGGLVQPGGSLRLSCAASGFTVSSNYMSWVRQAPGKGLEWVSVIYSGGSTFYADSVKGRFTISRDNSMNTLFLQMNSLRAEDTAVYYCARVLPMYGDYLDYWGQGTLVTVSS
VL: DIVMTQSPSSLSASVGDRVTITCRASQSILPYLNWYQQKPGKAPKLLIYAASSLQSGVPSRFSGSGSGTDFTLTISSLQPEDFATYYCQQSNSPRPEYTFGQGTKLEIK
notes: also called CB6-27-VL; CB6-27-LC
For the molecule B9, the binding result was “binds”.

B10: CB6-25 (轻链突变库克隆) (Fab, V domains shown)
VH: EVQLVESGGGLVQPGGSLRLSCAASGFTVSSNYMSWVRQAPGKGLEWVSVIYSGGSTFYADSVKGRFTISRDNSMNTLFLQMNSLRAEDTAVYYCARVLPMYGDYLDYWGQGTLVTVSS
VL: DIVMTQSPSSLSASVGDRVTITCRASQNIMQYLNWYQQKPGKAPKLLIYAASSLQSGVPSRFSGSGSGTDFTLTISSLQPEDFATYYCQQSSSPKPEYTFGQGTKLEIK
notes: also called CB6-25-VL; CB6-25-LC
Regarding B10, the binding result is given as “binds”.

B11: CB6-23 (轻链突变库克隆) (Fab, V domains shown)
VH: EVQLVESGGGLVQPGGSLRLSCAASGFTVSSNYMSWVRQAPGKGLEWVSVIYSGGSTFYADSVKGRFTISRDNSMNTLFLQMNSLRAEDTAVYYCARVLPMYGDYLDYWGQGTLVTVSS
VL: DIVMTQSPSSLSASVGDRVTITCRASQWIPSYLNWYQQKPGKAPKLLIYAASSLQSGVPSRFSGSGSGTDFTLTISSLQPEDFATYYCQQSKSWKPEYTFGQGTKLEIK
notes: also called CB6-23-VL; CB6-23-LC
Regarding B11, the binding result was “binds”.

B12: CB6-21 (轻链突变库克隆) (Fab, V domains shown)
VH: EVQLVESGGGLVQPGGSLRLSCAASGFTVSSNYMSWVRQAPGKGLEWVSVIYSGGSTFYADSVKGRFTISRDNSMNTLFLQMNSLRAEDTAVYYCARVLPMYGDYLDYWGQGTLVTVSS
VL: DIVMTQSPSSLSASVGDRVTITCRASQWIGNYLNWYQQKPGKAPKLLIYAASSLQSGVPSRFSGSGSGTDFTLTISSLQPEDFATYYCQQSTSNRPEYTFGQGTKLEIK
notes: also called CB6-21-VL; CB6-21-LC
For the molecule B12, the binding result is on record as “binds”.

B13: CB6-28 (轻链突变库克隆) (Fab, V domains shown)
VH: EVQLVESGGGLVQPGGSLRLSCAASGFTVSSNYMSWVRQAPGKGLEWVSVIYSGGSTFYADSVKGRFTISRDNSMNTLFLQMNSLRAEDTAVYYCARVLPMYGDYLDYWGQGTLVTVSS
VL: DIVMTQSPSSLSASVGDRVTITCRASQDIVSYLNWYQQKPGKAPKLLIYAASSLQSGVPSRFSGSGSGTDFTLTISSLQPEDFATYYCQQSASPTPEYTFGQGTKLEIK
notes: also called CB6-28-VL; CB6-28-LC
In the case of B13, the binding result is on record as “binds”.

B14: CB6-29 (轻链突变库克隆) (Fab, V domains shown)
VH: EVQLVESGGGLVQPGGSLRLSCAASGFTVSSNYMSWVRQAPGKGLEWVSVIYSGGSTFYADSVKGRFTISRDNSMNTLFLQMNSLRAEDTAVYYCARVLPMYGDYLDYWGQGTLVTVSS
VL: DIVMTQSPSSLSASVGDRVTITCRASQMILPYLNWYQQKPGKAPKLLIYAASSLQSGVPSRFSGSGSGTDFTLTISSLQPEDFATYYCQQSSSAKPEYTFGQGTKLEIK
notes: also called CB6-29-VL; CB6-29-LC
Regarding B14, the binding result is “binds”.

B15: CB6-33 (轻链突变库克隆) (Fab, V domains shown)
VH: EVQLVESGGGLVQPGGSLRLSCAASGFTVSSNYMSWVRQAPGKGLEWVSVIYSGGSTFYADSVKGRFTISRDNSMNTLFLQMNSLRAEDTAVYYCARVLPMYGDYLDYWGQGTLVTVSS
VL: DIVMTQSPSSLSASVGDRVTITCRASQNILPYLNWYQQKPGKAPKLLIYAASSLQSGVPSRFSGSGSGTDFTLTISSLQPEDFATYYCQQSSSAVPEYTFGQGTKLEIK
notes: also called CB6-33-VL; CB6-33-LC
For B15, the binding result is recorded as “binds”.

B16: CB6-19 (轻链突变库克隆) (Fab, V domains shown)
VH: EVQLVESGGGLVQPGGSLRLSCAASGFTVSSNYMSWVRQAPGKGLEWVSVIYSGGSTFYADSVKGRFTISRDNSMNTLFLQMNSLRAEDTAVYYCARVLPMYGDYLDYWGQGTLVTVSS
VL: DIVMTQSPSSLSASVGDRVTITCRASQQINFYLNWYQQKPGKAPKLLIYAASSLQSGVPSRFSGSGSGTDFTLTISSLQPEDFATYYCQQSGSSLPEYTFGQGTKLEIK
notes: also called CB6-19-VL; CB6-19-LC
Take B16: the binding result is listed as “binds”.

B17: CB6-32 (轻链突变库克隆) (Fab, V domains shown)
VH: EVQLVESGGGLVQPGGSLRLSCAASGFTVSSNYMSWVRQAPGKGLEWVSVIYSGGSTFYADSVKGRFTISRDNSMNTLFLQMNSLRAEDTAVYYCARVLPMYGDYLDYWGQGTLVTVSS
VL: DIVMTQSPSSLSASVGDRVTITCRASQDIDGYLNWYQQKPGKAPKLLIYAASSLQSGVPSRFSGSGSGTDFTLTISSLQPEDFATYYCQQSASPVPEYTFGQGTKLEIK
notes: also called CB6-32-VL; CB6-32-LC
Regarding B17, the binding result is “binds”.

B18: CB6-31 (轻链突变库克隆) (Fab, V domains shown)
VH: EVQLVESGGGLVQPGGSLRLSCAASGFTVSSNYMSWVRQAPGKGLEWVSVIYSGGSTFYADSVKGRFTISRDNSMNTLFLQMNSLRAEDTAVYYCARVLPMYGDYLDYWGQGTLVTVSS
VL: DIVMTQSPSSLSASVGDRVTITCRASQQIRQYLNWYQQKPGKAPKLLIYAASSLQSGVPSRFSGSGSGTDFTLTISSLQPEDFATYYCQQSSSPTPEYTFGQGTKLEIK
notes: also called CB6-31-VL; CB6-31-LC
With B18, the binding result is on record as “binds”.

B19: CB6-17 (轻链突变库克隆) (Fab, V domains shown)
VH: EVQLVESGGGLVQPGGSLRLSCAASGFTVSSNYMSWVRQAPGKGLEWVSVIYSGGSTFYADSVKGRFTISRDNSMNTLFLQMNSLRAEDTAVYYCARVLPMYGDYLDYWGQGTLVTVSS
VL: DIVMTQSPSSLSASVGDRVTITCRASQVINHYLNWYQQKPGKAPKLLIYAASSLQSGVPSRFSGSGSGTDFTLTISSLQPEDFATYYCQQSGSPTPEYTFGQGTKLEIK
notes: also called CB6-17-VL; CB6-17-LC
As to B19, the binding result was “binds”.

B20: CB6-24 (轻链突变库克隆) (Fab, V domains shown)
VH: EVQLVESGGGLVQPGGSLRLSCAASGFTVSSNYMSWVRQAPGKGLEWVSVIYSGGSTFYADSVKGRFTISRDNSMNTLFLQMNSLRAEDTAVYYCARVLPMYGDYLDYWGQGTLVTVSS
VL: DIVMTQSPSSLSASVGDRVTITCRASQQISRYLNWYQQKPGKAPKLLIYAASSLQSGVPSRFSGSGSGTDFTLTISSLQPEDFATYYCQQSSSPTPEYTFGQGTKLEIK
notes: also called CB6-24-VL; CB6-24-LC
Consider B20, for which the binding result was “binds”.

B21: CB6-36 (轻链突变库克隆) (Fab, V domains shown)
VH: EVQLVESGGGLVQPGGSLRLSCAASGFTVSSNYMSWVRQAPGKGLEWVSVIYSGGSTFYADSVKGRFTISRDNSMNTLFLQMNSLRAEDTAVYYCARVLPMYGDYLDYWGQGTLVTVSS
VL: DIVMTQSPSSLSASVGDRVTITCRASQAILPYLNWYQQKPGKAPKLLIYAASSLQSGVPSRFSGSGSGTDFTLTISSLQPEDFATYYCQQSSSALPEYTFGQGTKLEIK
notes: also called CB6-36-VL; CB6-36-LC
For B21, the binding result is recorded as “binds”.

Source of the values: patent publication CN115073593A (SHANGHAI JUNSHI BIOSCIENCES CO LTD; JUNMENG BIOSCIENCES CO …, dated 2022).
